Assay [1] addresses T1, mFc-hNKG2D (human, UniProt P26718 73-216).
T1 construct: extracellular domain; Made in house (Dragonfly Tx); the order of tag and ECD follows the name mFc-hNKG2D; also called mFc-tagged human NKG2D; not shown: mouse Fc tag
T1 sequence (looked up): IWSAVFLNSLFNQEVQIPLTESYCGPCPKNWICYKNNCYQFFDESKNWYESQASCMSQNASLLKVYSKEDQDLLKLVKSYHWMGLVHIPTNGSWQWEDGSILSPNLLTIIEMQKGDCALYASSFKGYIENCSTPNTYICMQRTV
The assay can be described thus: SPR Biacore 8K 37 C; mFc-hNKG2D captured on anti-mFc chip, TriNKET as analyte; steady state fit; un-oxidized control.

Assay [2] has as its target T2, mFc-cNKG2D (cynomolgus monkey, UniProt P61252 73-216).
T2 construct: extracellular domain; Made in house (Dragonfly Tx); also called recombinant cyno NKG2D extracellular domain (ECD); mFc-tagged cyno NKG2D dimer; not shown: mouse Fc tag
T2 sequence (looked up): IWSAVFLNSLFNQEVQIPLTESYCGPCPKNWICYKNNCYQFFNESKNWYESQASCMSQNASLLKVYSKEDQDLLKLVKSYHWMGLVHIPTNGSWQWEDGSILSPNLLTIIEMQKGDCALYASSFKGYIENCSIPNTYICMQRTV
Put plainly: SPR Biacore 37 C; mFc-tagged cyno NKG2D dimer, TriNKET as analyte; 1:1 kinetic fit. (SPR reads the build-up and loss of mass on a sensor chip optically.)

In assay [3] the target is T3, Human CLEC12A-His (human, UniProt Q5QGZ9 65-265).
T3 construct: Recombinant soluble protein made in house (Dragonfly Tx); The hCLEC12A spot of the HuProt array is written under this molecule as well; also called hCLEC12A-His; hCLEC12A; not shown: His tag
T3 sequence: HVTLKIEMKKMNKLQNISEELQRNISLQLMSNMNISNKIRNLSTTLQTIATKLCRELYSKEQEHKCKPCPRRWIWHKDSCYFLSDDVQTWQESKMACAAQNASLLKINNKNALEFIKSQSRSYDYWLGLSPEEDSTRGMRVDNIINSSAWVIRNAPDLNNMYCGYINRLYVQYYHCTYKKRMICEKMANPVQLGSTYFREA
The assay can be described thus: SPR Biacore 8K 37 C; TriNKET captured on anti-hFc chip, hCLEC12A-His as analyte; 1:1 fit; after low pH hold (pH 3.3, 1.5 h), n=4.

Several values for one entry are separate records, joined by “and”; a condition that tells them apart may be missing. Equal entries are not always repeated.

B1: F3'-1602 TriNKET (bispecific antibody, human IgG1, kappa)
chain: QLQLQESGPGLVKPSETLSLTCTVSGFSLTNYGLHWIRQPPGKCLEWIGVIWSGGKTDYNPSLKSRVTISKDTSKNQFSLKLSSVQAADTAVYYCAKYDYDDSLDYWGQGTLVTVSSGGGGSGGGGSGGGGSGGGGSDIQMTQSPSSLSASVGDRVTITCHASQNINFWLSWYQQKPGKAPKLLIYEASNLHTGVPSRFSGSGSGTRFTLTISSLQPEDIATYYCQQSHSYPLTFGCGTKLEIKGSDKTHTCPPCPAPELLGGPSVFLFPPKPKDTLMISRTPEVTCVVVDVSHEDPEVKFNWYVDGVEVHNAKTKPREEQYNSTYRVVSVLTVLHQDWLNGKEYKCKVSNKALPAPIEKTISKAKGQPREPRVYTLPPCRDELTKNQVSLTCLVKGFYPSDIAVEWESNGQPENNYKTTPPVLVSDGSFTLYSKLTVDKSRWQQGNVFSCSVMHEALHNHYTQKSLSLSPG
heavy: EVQLVESGGGLVKPGGSLRLSCAASGFTFSSYSMNWVRQAPGKGLEWVSSISSSSSYIYYADSVKGRFTISRDNAKNSLYLQMNSLRAEDTAVYYCARGAPIGAAAGWFDPWGQGTLVTVSSASTKGPSVFPLAPSSKSTSGGTAALGCLVKDYFPEPVTVSWNSGALTSGVHTFPAVLQSSGLYSLSSVVTVPSSSLGTQTYICNVNHKPSNTKVDKKVEPKSCDKTHTCPPCPAPELLGGPSVFLFPPKPKDTLMISRTPEVTCVVVDVSHEDPEVKFNWYVDGVEVHNAKTKPREEQYNSTYRVVSVLTVLHQDWLNGKEYKCKVSNKALPAPIEKTISKAKGQPREPQVCTLPPSRDELTENQVSLTCLVKGFYPSDIAVEWESNGQPENNYKTTPPVLDSDGSFFLYSWLTVDKSRWQQGNVFSCSVMHEALHNHYTQKSLSLSPG
light: DIQMTQSPSSVSASVGDRVTITCRASQGISSWLAWYQQKPGKAPKLLIYAASSLQSGVPSRFSGSGSGTDFTLTISSLQPEDFATYYCQQGVSFPRTFGGGTKVEIKRTVAAPSVFIFPPSDEQLKSGTASVVCLLNNFYPREAKVQWKVDNALQSGNSQESVTEQDSKDSTYSLSSTLTLSKADYEKHKVYACEVTHQGLSSPVTKSFNRGEC
notes: Trispecific F3' format: CLEC12A scFv-Fc paired with NKG2D Fab-Fc; Stressed and control samples of the stability studies are the same molecule; also called AB0237
Take B1: the dissociation constant (Kd) in assay [1] was determined as 759 nM. In assay [2], the koff is 0.147 s⁻¹ and 0.136 s⁻¹ and 0.145 s⁻¹ and 0.135 s⁻¹; the kon is 177000 M⁻¹ s⁻¹ and 164000 M⁻¹ s⁻¹ and 156000 M⁻¹ s⁻¹ and 176000 M⁻¹ s⁻¹. In assay [3], this molecule yielded a Kd of 0.644 nM and a kon of 715000 M⁻¹ s⁻¹.

As usually defined, the Kd is a measure of binding affinity in units of concentration. Higher therefore signals weaker binding. By koff is commonly meant the rate constant with which the complex falls apart. Higher therefore signals fast dissociation. As usually defined, the kon is a measure of how fast the partners come together.

Values taken from patent US20220119534A1 (DRAGONFLY THERAPEUTICS, published 2022).
